Assay [1] has as its target cation-independent mannose-6-phosphate/IGF-II receptor on GM4668 human skin fibroblasts (human) (UniProt P11717).
For assay [2] the target is unchanged. Put plainly: cell-based or functional assay.
Assay [3] has the same target. This is another data set of the same source.

UniProt P11717, sequence (P11717 41-2491): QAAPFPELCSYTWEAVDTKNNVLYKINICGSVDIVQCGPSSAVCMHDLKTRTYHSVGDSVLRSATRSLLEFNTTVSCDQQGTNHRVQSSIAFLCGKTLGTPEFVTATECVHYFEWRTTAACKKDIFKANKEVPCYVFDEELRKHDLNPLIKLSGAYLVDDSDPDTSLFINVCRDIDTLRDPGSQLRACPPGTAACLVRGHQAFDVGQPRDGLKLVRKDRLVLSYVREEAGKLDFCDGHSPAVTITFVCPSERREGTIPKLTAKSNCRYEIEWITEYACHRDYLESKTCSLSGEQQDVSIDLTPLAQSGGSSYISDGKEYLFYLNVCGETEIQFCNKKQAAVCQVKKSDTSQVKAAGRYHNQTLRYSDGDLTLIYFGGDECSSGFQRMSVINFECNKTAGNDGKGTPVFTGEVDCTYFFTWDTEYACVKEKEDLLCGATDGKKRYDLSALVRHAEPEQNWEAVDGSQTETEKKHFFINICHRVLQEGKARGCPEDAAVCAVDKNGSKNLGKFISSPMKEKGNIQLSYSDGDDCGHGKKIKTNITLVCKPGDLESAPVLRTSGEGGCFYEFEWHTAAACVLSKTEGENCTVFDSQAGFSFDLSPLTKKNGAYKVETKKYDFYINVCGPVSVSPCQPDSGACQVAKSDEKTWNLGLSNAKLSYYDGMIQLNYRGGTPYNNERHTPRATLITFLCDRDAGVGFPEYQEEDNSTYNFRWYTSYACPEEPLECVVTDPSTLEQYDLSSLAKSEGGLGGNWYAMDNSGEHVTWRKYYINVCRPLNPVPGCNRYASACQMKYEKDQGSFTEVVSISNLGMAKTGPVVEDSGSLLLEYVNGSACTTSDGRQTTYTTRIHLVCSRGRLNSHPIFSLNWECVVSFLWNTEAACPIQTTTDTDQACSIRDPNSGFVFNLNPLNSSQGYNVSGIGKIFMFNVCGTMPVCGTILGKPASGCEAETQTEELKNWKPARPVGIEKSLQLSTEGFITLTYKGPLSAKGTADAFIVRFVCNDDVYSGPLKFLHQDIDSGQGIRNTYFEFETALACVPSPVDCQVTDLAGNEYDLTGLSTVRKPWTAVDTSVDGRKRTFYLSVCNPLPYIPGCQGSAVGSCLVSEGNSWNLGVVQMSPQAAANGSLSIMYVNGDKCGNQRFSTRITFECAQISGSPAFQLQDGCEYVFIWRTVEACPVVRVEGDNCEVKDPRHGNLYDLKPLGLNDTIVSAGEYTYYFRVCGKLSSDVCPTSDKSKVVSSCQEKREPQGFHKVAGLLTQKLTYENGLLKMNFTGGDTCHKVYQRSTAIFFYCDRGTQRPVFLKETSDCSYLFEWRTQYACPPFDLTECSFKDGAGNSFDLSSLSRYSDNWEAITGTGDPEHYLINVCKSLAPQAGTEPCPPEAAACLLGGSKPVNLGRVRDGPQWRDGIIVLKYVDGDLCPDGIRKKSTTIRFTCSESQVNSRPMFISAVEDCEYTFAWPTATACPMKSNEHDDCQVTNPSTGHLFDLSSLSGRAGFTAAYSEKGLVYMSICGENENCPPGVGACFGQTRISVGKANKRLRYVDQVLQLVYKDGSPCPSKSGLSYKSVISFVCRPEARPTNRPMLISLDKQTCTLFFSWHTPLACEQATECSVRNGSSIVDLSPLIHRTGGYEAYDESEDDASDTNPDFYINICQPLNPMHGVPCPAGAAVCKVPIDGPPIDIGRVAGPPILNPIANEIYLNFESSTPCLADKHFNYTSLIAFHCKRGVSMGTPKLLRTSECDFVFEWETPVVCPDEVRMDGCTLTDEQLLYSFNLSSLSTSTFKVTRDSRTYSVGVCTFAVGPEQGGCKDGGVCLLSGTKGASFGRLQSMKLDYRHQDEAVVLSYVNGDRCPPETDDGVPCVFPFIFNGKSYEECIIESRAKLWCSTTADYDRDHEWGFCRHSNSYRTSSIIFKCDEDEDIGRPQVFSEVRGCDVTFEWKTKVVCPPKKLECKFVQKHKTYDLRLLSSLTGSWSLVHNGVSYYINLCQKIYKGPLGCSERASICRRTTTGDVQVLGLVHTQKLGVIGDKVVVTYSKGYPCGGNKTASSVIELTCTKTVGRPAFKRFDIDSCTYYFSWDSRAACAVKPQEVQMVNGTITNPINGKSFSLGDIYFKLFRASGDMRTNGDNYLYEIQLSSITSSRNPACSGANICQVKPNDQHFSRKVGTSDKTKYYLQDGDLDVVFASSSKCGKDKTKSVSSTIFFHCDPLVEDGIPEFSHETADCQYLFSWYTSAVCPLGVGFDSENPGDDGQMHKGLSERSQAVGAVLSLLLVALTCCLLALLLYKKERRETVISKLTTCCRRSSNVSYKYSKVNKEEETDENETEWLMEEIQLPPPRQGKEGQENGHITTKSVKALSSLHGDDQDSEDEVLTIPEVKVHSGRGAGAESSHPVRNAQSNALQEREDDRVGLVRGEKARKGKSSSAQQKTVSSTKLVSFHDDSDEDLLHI

Take GUS-GILTΔ1-7 (from UniProt P08236): in assay [1], the cell-associated GUS activity in GM4668 fibroblast lysate after uptake of about 350-600 units of ConA-purified enzyme in the presence of excess IGF-II as competitor (Units/mg protein) came out at 13.5 and the cell-associated GUS activity in GM4668 fibroblast lysate after uptake of about 350-600 units of ConA-purified enzyme, no competitor (Units/mg protein) stood at 245.
For the substance “HEK GUS-GILTF19SE12K (from UniProt P08236 23-651)”, in assay [2], the % IGF-II +M6P inhibition of uptake turned out to be 100%; the +IGF-II (units/mg): uptake with IGF-II, 22.5 hours was found to be 22 units/mg; the +IGF-II +M6P (units/mg): uptake with both inhibitors, 22.5 hours came out at 0 units/mg; the +IGF-II Uptake (units/mg), 21 hours was 388 units/mg. In assay [2], this substance displayed a +M6P (units/mg): uptake with 8 mM M6P, 22.5 hours of 846 units/mg; an Uptake (units/mg), MPS VII fibroblasts, 21 hours of 4230 units/mg; an Uptake (units/mg), fibroblasts, 22.5 hours of 1230 units/mg.
The substance “HEK GUS-GILTY27L (from UniProt P08236 23-651)” gave an Uptake (units/mg), MPS VII fibroblasts, 21 hours in assay [2] of 1510 units/mg.
As for “CHO GUSΔC18-GILTΔ1-7 (from UniProt P08236 23-633)”, in assay [2], the % IGF-II +M6P inhibition of uptake was 100%; the +IGF-II (units/mg): uptake with IGF-II, 22.5 hours was 473 units/mg; the +IGF-II (units/mg): uptake with excess IGF-II, 18 hours stood at 258 units/mg; the +IGF-II +M6P (units/mg): uptake with both inhibitors, 22.5 hours came to 0 units/mg. In assay [2], this substance came in with a +IGF-II Uptake (units/mg), 21 hours of 1010 units/mg; a +M6P (units/mg): uptake with 8 mM M6P, 22.5 hours of 639 units/mg; a +M6P (units/mg): uptake with excess M6P, 18 hours of 412 units/mg; an Uptake (units/mg), GM4668 fibroblasts, 18 hours of 704 units/mg. Also, in assay [2], the Uptake (units/mg), MPS VII fibroblasts, 21 hours worked out at 4080 units/mg and the Uptake (units/mg), fibroblasts, 22.5 hours amounted to 1580 units/mg.
For “GUS-IGF-II fusion protein (GUS-GILT), Leishmania-expressed”, in assay [1], the cell-associated GUS activity in GM4668 fibroblast lysate after uptake of about 350-600 units of ConA-purified enzyme in the presence of excess IGF-II as competitor (Units/mg protein) was determined as 7.93 and the cell-associated GUS activity in GM4668 fibroblast lysate after uptake of about 350-600 units of ConA-purified enzyme, no competitor (Units/mg protein) was 55.1. Also, the cell-associated GUS activity in GM4668 fibroblast lysate after about 18 h uptake, 150 U enzyme per well, no competitor in assay [3] was found to be 24.1 U/mg lysate. In addition, in assay [2], the cell-associated GILT-GUS in GM4668 fibroblasts, no IGF-II (units/mg lysate) is > 24; the cell-associated GILT-GUS in GM4668 fibroblasts, with excess IGF-II was 5.4 U; the cell-associated GUS activity in GM4668 fibroblasts, fold over unmodified GUS worked out at 10 fold.
In assay [2], “CHO GUS (from UniProt P08236 23-651) (enzyme)” returned a +IGF-II (units/mg): uptake with excess IGF-II, 18 hours of 336 units/mg; a +M6P (units/mg): uptake with excess M6P, 18 hours of 1 units/mg; an Uptake (units/mg), GM4668 fibroblasts, 18 hours of 352 units/mg.
For “HEK GUS-GILT (from UniProt P08236 23-651)”, the Uptake (units/mg), MPS VII fibroblasts, 21 hours in assay [2] was 1430 units/mg.
In assay [1], GUS (enzyme) had a cell-associated GUS activity in GM4668 fibroblast lysate after uptake of about 350-600 units of ConA-purified enzyme (untagged comparison) (Units/mg protein) of 3.38. Besides, the cell-associated GUS activity in GM4668 fibroblast lysate after about 18 h uptake, 150 U enzyme per well (untagged comparison) in assay [3] was found to be 4.5 U/mg lysate.
On to “HEK GUSΔC18-GILTΔ1-7 (from UniProt P08236 23-633)”, for which, in assay [2], the +IGF-II Uptake (units/mg), 21 hours stood at 1210 units/mg and the Uptake (units/mg), MPS VII fibroblasts, 21 hours stood at 5190 units/mg.
In assay [2], “CHO GUS-GILTΔ1-7 (from UniProt P08236 23-651)” displayed a +IGF-II (units/mg): uptake with excess IGF-II, 18 hours of 84 units/mg; a +M6P (units/mg): uptake with excess M6P, 18 hours of 223 units/mg; an Uptake (units/mg), GM4668 fibroblasts, 18 hours of 310 units/mg.
Consider “GILT-GUS with Δ1-7 and Y27L mutations in the IGF-II portion, Leishmania-expressed (from UniProt P08236 23-651)”, for which the cell-associated GUS activity in GM4668 fibroblasts, fold over unmodified GUS in assay [2] was determined as 5 fold.
Consider “HEK GUS-GILTF19S (from UniProt P08236 23-651)”, for which, in assay [2], the % IGF-II +M6P inhibition of uptake was 99.1%; the +IGF-II (units/mg): uptake with IGF-II, 22.5 hours was 217 units/mg; the +IGF-II +M6P (units/mg): uptake with both inhibitors, 22.5 hours came to 15 units/mg; the +IGF-II Uptake (units/mg), 21 hours amounted to 439 units/mg. Moreover, in assay [2], the +M6P (units/mg): uptake with 8 mM M6P, 22.5 hours was 952 units/mg; the Uptake (units/mg), MPS VII fibroblasts, 21 hours stood at 4730 units/mg; the Uptake (units/mg), fibroblasts, 22.5 hours is 1590 units/mg.

The values are drawn from patent publication US20190224282A1.
